According to ChEMBL document CHEMBL2074257, “Expression cloning of a Na+-independent aromatic amino acid transporter with structural similarity to H+/monocarboxylate transporters” (J Biol Chem, 2001):

T1: Monocarboxylate transporter 10 (Rattus norvegicus, UniProt Q91Y77)
T1 sequence (Q91Y77 whole entry): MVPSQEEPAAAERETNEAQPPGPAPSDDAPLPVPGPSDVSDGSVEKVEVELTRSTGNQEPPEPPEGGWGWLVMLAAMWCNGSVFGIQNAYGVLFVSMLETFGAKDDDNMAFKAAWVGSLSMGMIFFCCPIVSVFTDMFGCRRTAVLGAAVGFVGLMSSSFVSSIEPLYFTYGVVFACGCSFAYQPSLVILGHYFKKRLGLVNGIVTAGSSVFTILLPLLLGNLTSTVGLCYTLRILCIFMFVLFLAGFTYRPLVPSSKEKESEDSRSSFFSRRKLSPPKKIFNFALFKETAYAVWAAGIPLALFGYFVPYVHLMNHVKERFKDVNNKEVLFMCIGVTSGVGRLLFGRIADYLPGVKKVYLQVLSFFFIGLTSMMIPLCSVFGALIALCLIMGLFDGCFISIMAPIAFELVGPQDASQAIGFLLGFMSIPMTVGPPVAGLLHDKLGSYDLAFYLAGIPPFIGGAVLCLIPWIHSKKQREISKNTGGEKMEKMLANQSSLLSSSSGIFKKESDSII


Tests used:
[1] = target: T1, Monocarboxylate transporter 10; assay: TP_TRANSPORTER: inhibition of L-tryptophan uptake in Xenopus laevis oocytes; type: functional, cell-based, Oocyte
[2] = substrate: N[C@@H](Cc1c[nH]c2ccccc12)C(=O)O; settings: Xenopus laevis; Oocyte
[3] = substrate: N[C@@H](Cc1ccc(O)c(O)c1)C(=O)O; settings: Xenopus laevis; Oocyte
[4] = substrate: N[C@@H](Cc1ccc(O)cc1)C(=O)O; settings: Xenopus laevis; Oocyte
[5] = substrate: N[C@@H](Cc1ccccc1)C(=O)O; settings: Xenopus laevis; Oocyte

Row | Molecule | Ki [1] [µM] | Km [2] [mM] | Km [3] [mM] | Km [4] [mM] | Km [5] [mM]
1 | CC(=O)N[C@@H](Cc1c[nH]c2ccccc12)C(=O)O [ACETYLTRYPTOPHAN] | 1500 |  |  |  | 
2 | CN[C@@H](Cc1c[nH]c2ccccc12)C(=O)O [ABRINE] | 3100 |  |  |  | 
3 | Monocarboxylate transporter 10 (Rattus norvegicus), Q91Y77 (protein) MVPSQEEPAAAERETNEAQPPGPAPSDDAPLPVPGPSDVSDGSVEKVEVELTRSTGNQEPPEPPEGGWGWLVMLAAMWCNGSVFGIQNAYGVLFVSMLETFGAKDDDNMAFKAAWVGSLSMGMIFFCCPIVSVFTDMFGCRRTAVLGAAVGFVGLMSSSFVSSIEPLYFTYGVVFACGCSFAYQPSLVILGHYFKKRLGLVNGIVTAGSSVFTILLPLLLGNLTSTVGLCYTLRILCIFMFVLFLAGFTYRPLVPSSKEKESEDSRSSFFSRRKLSPPKKIFNFALFKETAYAVWAAGIPLALFGYFVPYVHLMNHVKERFKDVNNKEVLFMCIGVTSGVGRLLFGRIADYLPGVKKVYLQVLSFFFIGLTSMMIPLCSVFGALIALCLIMGLFDGCFISIMAPIAFELVGPQDASQAIGFLLGFMSIPMTVGPPVAGLLHDKLGSYDLAFYLAGIPPFIGGAVLCLIPWIHSKKQREISKNTGGEKMEKMLANQSSLLSSSSGIFKKESDSII |  | 3.72 | 6.43 | 2.59 | 7.02
